{
  "source": "patent US20250115669A1",
  "about": "“FGFR1/KLB Targeting Agonistic Antigen-Binding Proteins and Conjugates Thereof with GLP-1R Agonistic Peptides” (SANOFI, priority 2020, published 2025)",
  "molecules": {"B1": {"name": "Ab0394: IgG4 PE; 16H7 VL (Y48del, D95S, W90F, S1C, S94C); 16H7 VH (M34V, H52W, I83T, D109E) (antibody)", "VH": "QVTLKESGPVLVKPTETLTLTCTVSGFSLNNARVGVSWIRQPPGKALEWLAWIFSNDEKSYSTSLKSRLTISKDTSKSQVVLTMTNMDPVDTATYYCARSVVTGGYYYEGMDVWGQGTTVTVSS", "light": "CYVLTQPPSVSVAPGQTARITCGGNNIGSESVHWYQQKPGQAPVLVVDDSDRPSGIPERFSGSNSGNTATLTISRVEAGDEADYYCQVFDGNCSHVVFGGGTKLTVLGQPKANPTVTLFPPSSEELQANKATLVCLISDFYPGAVTVAWKADGSPVKAGVETTKPSKQSNNKYAASSYLSLTPEQWKSHRSYSCQVTHEGSTVEKTVAPTECS"}, "B2": {"name": "Ab0398: IgG4 PE; 16H7 VL (Y48del, D95A, W90F, S1C, S94C); 16H7 VH (M34V, H52S, F54W, I83T, D109E) (antibody)", "VH": "B1 VH with W52S, F54W", "light": "B1 light with S94A"}, "B3": {"name": "Ab0408: IgG4 PE; 16H7 VL (Y48del, D95T, W90F); 16H7 VH (M34V, H52W, I83T, D109E) (antibody)", "VH": "B1 VH", "light": "B1 light with C1S, C93S, S94T"}, "B4": {"name": "Ab0410: IgG4 PE; 16H7 VL (Y48del, D95S, W90Y); 16H7 VH (M34V, I83T, D109E) (antibody)", "VH": "B1 VH with W52H", "light": "B1 light with C1S, F89Y, C93S"}, "B5": {"name": "Ab0399: IgG4 PE; 16H7 VL (Y48del, D95A, W90F, S94C, H96C); 16H7 VH (M34V, F54W, I83T, D109E) (antibody)", "VH": "B1 VH with W52H, F54W", "light": "B1 light with C1S, S94A, H95C"}, "B6": {"name": "Ab0406: IgG4 PE; 16H7 VL (Y48del, D95T, W90F, S1C, S94C); 16H7 VH (M34V, H52S, F54W, I83T, D109E) (antibody)", "VH": "B1 VH with W52S, F54W", "light": "B1 light with S94T"}, "B7": {"name": "Ab0396: IgG4 PE; 16H7 VL (Y48del, D95A, W90F); 16H7 VH (M34V, H52S, F54W, I83T, D109E) (antibody)", "VH": "B1 VH with W52S, F54W", "light": "B1 light with C1S, C93S, S94A"}, "B8": {"name": "Ab0403: IgG4 PE; 16H7 VL (Y48del, D95A, W90F, S1C, S94C); 16H7 VH (M34V, H52W, I83T, D109E) (antibody)", "VH": "B1 VH", "light": "B1 light with S94A"}, "B9": {"name": "Ab0326: IgG4 PE; 16H7 VL (N25S, D49Y, D50E, D91E, N93S); 16H7 VH (M34V, I83T, D109E) (antibody)", "VH": "B1 VH with W52H", "light": "SYVLTQPPSVSVAPGQTARITCGGSNIGSESVHWYQQKPGQAPVLVVYYESDRPSGIPERFSGSNSGNTATLTISRVEAGDEADYYCQVWEGSSDHVVFGGGTKLTVLGQPKANPTVTLFPPSSEELQANKATLVCLISDFYPGAVTVAWKADGSPVKAGVETTKPSKQSNNKYAASSYLSLTPEQWKSHRSYSCQVTHEGSTVEKTVAPTECS"}, "B10": {"name": "Ab0401: IgG4 PE; 16H7 VL (Y48del, D95A, W90F); 16H7 VH (M34V, H52W, I83T, D109E) (antibody)", "VH": "B1 VH", "light": "B1 light with C1S, C93S, S94A"}, "B11": {"name": "Ab0327: IgG4 PE; 16H7 VL (N25S, D49Y, D50Y, D91E, N93E); 16H7 VH (M34V, I83T, D109E) (antibody)", "VH": "B1 VH with W52H", "light": "B9 light with E50Y, S93E"}, "B12": {"name": "Ab0405: IgG4 PE; 16H7 VL (Y48del, D95T, W90F); 16H7 VH (M34V, H52S, F54W, I83T, D109E) (antibody)", "VH": "B1 VH with W52S, F54W", "light": "B1 light with C1S, C93S, S94T"}, "B13": {"name": "Ab0397: IgG4 PE; 16H7 VL (Y48del, D95A, W90F, S1C, S94C); 16H7 VH (M34V, F54W, I83T, D109E) (antibody)", "VH": "B1 VH with W52H, F54W", "light": "B1 light with S94A"}, "B14": {"name": "Ab0417: IgG4 PE; 16H7 VL (N25S, D49Y, D50E, D91H, N93E); 16H7 VH (M34V, I83T, D109E) (antibody)", "VH": "B1 VH with W52H", "light": "B9 light with E91H, S93E"}, "B15": {"name": "Ab0416: IgG4 PE; 16H7 VL (N25S, D49Y, D50E, D91E, N93E); 16H7 VH (M34V, I83T, D109E) (antibody)", "VH": "B1 VH with W52H", "light": "B9 light with S93E"}, "B16": {"name": "Ab0404: IgG4 PE; 16H7 VL (Y48del, D95T, W90F); 16H7 VH (M34V, F54W, I83T, D109E) (antibody)", "VH": "B1 VH with W52H, F54W", "light": "B1 light with C1S, C93S, S94T"}, "B17": {"name": "Ab0400: IgG4 PE; 16H7 VL (Y48del, D95A, W90F, S94C, H96C); 16H7 VH (M34V, H52S, F54W, I83T, D109E) (antibody)", "VH": "B1 VH with W52S, F54W", "light": "B1 light with C1S, S94A, H95C"}, "B18": {"name": "Ab0402: IgG4 PE; 16H7 VL (Y48del, D95A, W90F, S94C, H96C); 16H7 VH (M34V, H52W, I83T, D109E) (antibody)", "VH": "B1 VH", "light": "B1 light with C1S, S94A, H95C"}, "B19": {"name": "Ab0395: IgG4 PE; 16H7 VL (Y48del, D95A, W90F); 16H7 VH (M34V, F54W, I83T, D109E) (antibody)", "VH": "B1 VH with W52H, F54W", "light": "B1 light with C1S, C93S, S94A"}},
  "note": "Changes are numbered by the printed parent chain. Numbers in names are those of the source.",
  "data": [
    {"biological_target": "T1, human beta-Klotho (Homo sapiens, UniProt Q86Z14)", "T1 sequence (Q86Z14 1-1044)": "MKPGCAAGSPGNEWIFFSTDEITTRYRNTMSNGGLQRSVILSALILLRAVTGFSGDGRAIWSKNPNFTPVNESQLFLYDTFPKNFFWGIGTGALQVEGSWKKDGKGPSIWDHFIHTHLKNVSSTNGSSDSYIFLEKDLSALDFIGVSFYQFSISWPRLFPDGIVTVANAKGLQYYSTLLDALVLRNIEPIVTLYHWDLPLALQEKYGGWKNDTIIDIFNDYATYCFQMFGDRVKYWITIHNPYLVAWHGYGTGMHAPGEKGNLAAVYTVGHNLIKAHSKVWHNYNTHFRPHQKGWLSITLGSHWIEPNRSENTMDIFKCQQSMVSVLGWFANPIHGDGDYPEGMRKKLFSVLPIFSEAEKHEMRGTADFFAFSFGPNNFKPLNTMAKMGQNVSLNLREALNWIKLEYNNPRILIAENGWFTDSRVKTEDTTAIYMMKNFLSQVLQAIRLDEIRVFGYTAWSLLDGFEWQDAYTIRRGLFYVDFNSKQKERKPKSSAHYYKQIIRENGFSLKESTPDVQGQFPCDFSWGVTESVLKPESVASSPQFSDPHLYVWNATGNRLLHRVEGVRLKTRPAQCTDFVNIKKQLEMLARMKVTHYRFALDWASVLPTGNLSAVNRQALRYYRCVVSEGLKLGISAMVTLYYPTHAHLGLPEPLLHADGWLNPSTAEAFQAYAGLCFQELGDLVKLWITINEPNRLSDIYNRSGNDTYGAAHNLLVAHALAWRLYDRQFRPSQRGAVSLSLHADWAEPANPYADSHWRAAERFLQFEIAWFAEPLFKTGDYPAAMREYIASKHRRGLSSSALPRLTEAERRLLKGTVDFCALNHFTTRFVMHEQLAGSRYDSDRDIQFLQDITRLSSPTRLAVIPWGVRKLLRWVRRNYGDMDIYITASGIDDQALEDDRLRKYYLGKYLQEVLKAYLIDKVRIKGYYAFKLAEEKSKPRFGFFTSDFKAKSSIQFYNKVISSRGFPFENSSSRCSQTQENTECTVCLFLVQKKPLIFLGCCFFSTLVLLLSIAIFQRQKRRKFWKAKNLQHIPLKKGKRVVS", "assay": "SPR off-rate screening of antibody mutants (human beta-Klotho captured by anti-His antibody)", "format": "binding", "details": "mean, n=3", "experimental": "Screening of antibody mutants for binding to human beta-Klotho was determined in a different SPR assay set up. Human beta-Klotho was affinity captured by an anti-His antibody (from His capture kit, GE Healthcare) that was immobilized to a series S CM5 chip (GE Healthcare) by amine reactive coupling as described above. The antibody samples were used as analytes at 50 nmol/L concentration. Association time was 240 sec and dissociation time was 300 sec. Chip surfaces were regenerated using the regeneration solution supplied with the His capture kit. The off-rates (kd) were determined using single exponential fitting in the Biacore 8K Evaluation Software version 1.1.1.7442 (GE Healthcare).", "values": [
      {"molecule": "B1", "koff human KLB": "no binding"},
      {"molecule": "B2", "koff human KLB": "no binding"},
      {"molecule": "B3", "koff human KLB": "no binding"},
      {"molecule": "B4", "koff human KLB": "no binding"},
      {"molecule": "B5", "koff human KLB": "no binding"},
      {"molecule": "B6", "koff human KLB": "no binding"},
      {"molecule": "B7", "koff human KLB": "no binding"},
      {"molecule": "B8", "koff human KLB": "no binding"},
      {"molecule": "B9", "koff human KLB": "0.00175 s⁻¹"},
      {"molecule": "B10", "koff human KLB": "no binding"},
      {"molecule": "B11", "koff human KLB": "0.0003459 s⁻¹"},
      {"molecule": "B12", "koff human KLB": "no binding"},
      {"molecule": "B13", "koff human KLB": "no binding"},
      {"molecule": "B14", "koff human KLB": "0.0003027 s⁻¹"},
      {"molecule": "B15", "koff human KLB": "0.00107 s⁻¹"},
      {"molecule": "B16", "koff human KLB": "no binding"},
      {"molecule": "B17", "koff human KLB": "no binding"},
      {"molecule": "B18", "koff human KLB": "no binding"},
      {"molecule": "B19", "koff human KLB": "no binding"}
    ]}
  ]
}
